Target: Full-length human DDB1 (human, UniProt Q16531 1-1140)
Assay: crystal structure

Sequence of Full-length human DDB1 (Q16531 whole entry): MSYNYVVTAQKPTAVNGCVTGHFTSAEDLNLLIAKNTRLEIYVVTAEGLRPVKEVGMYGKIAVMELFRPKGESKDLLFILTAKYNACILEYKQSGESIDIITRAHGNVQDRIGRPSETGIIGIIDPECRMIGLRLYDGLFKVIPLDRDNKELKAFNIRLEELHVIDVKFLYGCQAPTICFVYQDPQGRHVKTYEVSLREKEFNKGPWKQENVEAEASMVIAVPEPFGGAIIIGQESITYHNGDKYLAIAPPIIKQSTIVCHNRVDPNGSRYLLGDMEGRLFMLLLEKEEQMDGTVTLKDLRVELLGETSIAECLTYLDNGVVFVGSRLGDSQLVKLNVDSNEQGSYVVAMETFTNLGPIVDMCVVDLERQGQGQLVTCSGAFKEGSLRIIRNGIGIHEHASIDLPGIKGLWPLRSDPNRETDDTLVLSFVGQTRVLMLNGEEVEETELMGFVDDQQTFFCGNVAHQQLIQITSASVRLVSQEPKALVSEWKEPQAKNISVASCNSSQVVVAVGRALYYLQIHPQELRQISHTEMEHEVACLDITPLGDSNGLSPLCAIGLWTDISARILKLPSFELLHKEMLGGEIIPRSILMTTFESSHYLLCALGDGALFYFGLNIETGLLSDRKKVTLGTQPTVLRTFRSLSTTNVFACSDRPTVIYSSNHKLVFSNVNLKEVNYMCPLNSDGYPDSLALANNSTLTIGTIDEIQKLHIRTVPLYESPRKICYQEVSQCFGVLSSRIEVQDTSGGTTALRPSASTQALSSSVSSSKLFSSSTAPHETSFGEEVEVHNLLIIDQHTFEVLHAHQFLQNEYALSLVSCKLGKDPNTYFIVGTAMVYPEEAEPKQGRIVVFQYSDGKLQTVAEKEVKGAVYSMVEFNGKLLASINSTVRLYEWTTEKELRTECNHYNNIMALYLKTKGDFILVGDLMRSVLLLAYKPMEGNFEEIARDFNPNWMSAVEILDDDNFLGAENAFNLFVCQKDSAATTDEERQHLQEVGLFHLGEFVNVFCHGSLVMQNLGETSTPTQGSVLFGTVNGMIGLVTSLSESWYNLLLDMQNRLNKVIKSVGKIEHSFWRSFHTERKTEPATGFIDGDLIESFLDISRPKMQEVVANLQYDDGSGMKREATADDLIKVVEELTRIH

- binding result: binds
Binder: NITRDLIRRQIKE (peptide, UniProt Q8N5D0 5-17, looked up) [DCAF9 peptide (amino acids 5 to 17 of DCAF9/WDTC1)]

— publication PMC2823288 (Nature structural & molecular biology, 2009)
